Assay results as given in the supplement of paper PMC9170038.

Tested on: MS2 coat protein
Test: apparent KD of MS2 coat protein; designed switch direction (-1 OFF switch, 1 ON switch): 1; higher = weaker reporter binding
Procedure, shortened: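 Designed RNA switches with common flanks were made on Illumina chips by stalled E. coli RNA polymerase. Titration with SNAP-549-labelled MS2 coat protein doubled from 0.7 or 1.5 nM up to 3 µM. Apparent KD is each design's median over clusters after curve-fitting normalised fluorescence.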

[1] = input ligand: microRNA oligo, concentration not stated
[2] = Eterna round: R95, input ligand: FMN 200 uM
[3] = Eterna round: R95, input ligand: microRNA oligo, concentration not stated
[4] = Eterna round: R95, input ligand: none

| Sequence | apparent KD of MS2 coat protein (input ligand: FMN 200 uM) [nM] | apparent KD of MS2 coat protein [1] [nM] | apparent KD of MS2 coat protein (input ligand: none) [nM] | apparent KD of MS2 coat protein [2] [nM] | apparent KD of MS2 coat protein [3] [nM] | apparent KD of MS2 coat protein [4] [nM] |
| --- | --- | --- | --- | --- | --- | --- |
| UUUACUUUCAUAGGAUAUCAUGCGAAAAUUGCGUGAGAAGGGUGCACACUGUCUUUCUCGGAGUACAUGAGGAUCACCCAUGUG [SameState NG1 #67] (Eterna round: R96, puzzle: Same State NG 1) | 45.6 | 36.8 | 44.3 |  |  |  |
| AUCAAAACAAGUUGCAGUGUUCGUCUUUCACAUGAGGAUCACCCAUGUAAUAGCCCAGUGGAAGCGCUCGGGCUACC [Esgevexe] (puzzle: Sensor for hsa-mir-208a) |  |  |  | 38.7 | 25.6 | 47.9 |
| AAACACAGCAUAACGCUGUGACAUGAGGAUCACCCAUGUACACAGGAUAUCAUGGCAUAACGCCAUGAGAAGGGUGAUCAAGAC [Arxeerte] (Eterna round: R96, puzzle: Same State NG 3) | 20.5 | 2.71 | 55.3 |  |  |  |
| AAAGAAAACAUAGGAUAUGUAACAUGAGGAUCACCCAUGUAUACCUCGUAAGAGAUGAUGGAUGGACAGAAGGAUGAUCUCAGG [Default title] (Eterna round: R96, puzzle: Same State NG 2) |  | 111 |  |  |  |  |
| UUGCUUCUCGUAGGAUAUGUAGGAUAUGCCUACAUGAGGAUCACCCAUGUUCGCAUGGCAGAAGGACAGAAGGACGAUCACCCU [pwkr ssNG2 2FMN + 1F5.8] (Eterna round: R96, puzzle: Same State NG 2) | 43.5 | 88.1 | 472 |  |  |  |
| UAGUGCUGUUGAGAGGAUAUGCGGCGACGGACAUGAGGAUCACCCAUGUUAGCGACAGCGUUGCGGCAGAAGGCUCUGCCCGCUA [Soteed Omei mod 52] (puzzle: Same State 2) |  |  |  | 13.1 | 27.4 | 33.3 |
| CUCCGGAUUGACAUGAGGAUCACCCAUGUGCCCUCAUUAAAGUAGGAUAUACCUCGCAGUCGGGAGUAGAAGGACUUUAUGAGU [Eternabot solution 36] (Eterna round: R96, puzzle: Same State NG 3) | 204 | 91.1 | 213 |  |  |  |
| GUUAUACAUGAGGAUCACCCAUGUCAAUGUAGUCGAGGAUAUGGGCAGCUAUGAGGCGUACUAGAAGGCGAAGAGG [JL-ss1-3.11 ViennaUCT mod] (puzzle: Same State 1) |  |  |  | 81.6 | 234 | 197 |
| AAAGUACAUGAGGAUCACCCAUGUCCAAAGAAGUAAGGAUAUACGGAAAGAAAAGAAAAUGUAGAAGGUACAAGAA [Same State 1 #3] (puzzle: Same State 1) |  |  |  | 33 | 65.8 | 57.6 |
| UUGCUCGUGUGAGGAUAUGCCGCCGUUUCGGCUGCAGAAGGUACUGUAAUACAUGAGGAUCACCCAUGUCUCUGUUGUUUCGUG [salish99_SSNG1_r04_934] (Eterna round: R96, puzzle: Same State NG 1) | 17.1 | 16.4 | 19.3 |  |  |  |
| CAAUAAUGUGGAGGAUAUGGGAGGUCAACACAUGAGGAUCACCCAUGUAGAUAGUGAGGCCAAGCCUAGAAGGCCACAAUCAGC [Eternabot solution 20] (Eterna round: R96, puzzle: Same State NG 2) | 12.6 | 65.5 | 95.9 |  |  |  |
| UGGUACAUGAGAGGAUAUGGGUAGAUGACAUGAGGAUCACCCAUGUUAAAGUCCGAAAGGACAUCCUAGAAGGCUCAUGUACCU [MOD of JL SSNG1 3.99] (Eterna round: R96, puzzle: Same State NG 2) | 11 | 27 | 27.7 |  |  |  |
| GCUUGCGGCGCAGGAUAUGGGUGCCUGUACAUGAGGAUCACCCAUGUUAAGGGACGGAUUACGAACCAGAAGGGCGUGGCGGGC [Ceerce] (Eterna round: R96, puzzle: Same State NG 2) | 47.8 | 108 | 430 |  |  |  |
| GCGAGCGUACUUGCAGACAUGAGGAUCACCCAUGUAACUGGACAGGAUAUGGUACCGUUUCGGUACCAGAAGGGUUUACAUGUU [JL SSNG3 3.51] (Eterna round: R96, puzzle: Same State NG 3) | 20.2 | 27.2 | 47.7 |  |  |  |
| CGUCGUUUGAUAGGAUAUCGCUAUACAUGAGGAUCACCCAUGUUUACCACGCUGGUUUUUCAUUCCGAGAAGGAUUCUGAUGUU [salish99_SSNG02_r04_021] (Eterna round: R96, puzzle: Same State NG 2) | 34.7 | 26 | 36.1 |  |  |  |
| AUUAUUUAUGCAGGAUAUGAUUAACAUGAGGAUCACCCAUGUGGUGUUGUGAGUAAGGAGAGUGAUCAGAAGGGCAUUAUUUUU [JMF's solution 45] (Eterna round: R96, puzzle: Same State NG 2) | 634 | 214 | 355 |  |  |  |

| Sequence | apparent KD of MS2 coat protein (input ligand: FMN 200 uM) [nM] | apparent KD of MS2 coat protein [1] [nM] | apparent KD of MS2 coat protein (input ligand: none) [nM] | apparent KD of MS2 coat protein [2] [nM] | apparent KD of MS2 coat protein [3] [nM] | apparent KD of MS2 coat protein [4] [nM] |
| --- | --- | --- | --- | --- | --- | --- |
| AUUAAACAUGAGGAUCACCCAUGUCAACAAAGUCGAGGAUAUGGGCAUAUUAUCUUAUUUCCAGAAGGCGAAUAAU [salish99_ss1_r3_088] (puzzle: Same State 1) |  |  |  |  | 131 |  |
| AGUCCAGCCUGAGCUGGACAAAAGCAUGUACAUGAGGAUCACCCAUGUCAUGUACAAGUUUUUUGCUCGUCUUAAAA [Zipper 46 - 11] (puzzle: Sensor for hsa-mir-208a) |  |  |  | 37.7 | 13 | 40.6 |
| UUAAUGAAGUAAGGAUAUACAUGAGGAUCUCUCGUAGAAGGUACUAUACAUGAGGAUCACCCAUGUGCCGGUCCGUAGACUGGA [JL SSNG1 1.04] (Eterna round: R96, puzzle: Same State NG 1) | 708 | 180 | 1280 |  |  |  |
| UGUUGUAUUACAGGAUAUCUAUUGGUUUUAUUUAGAGAAGGGUAUUCACAUGAGGAUCACCCAUGUAUAUACGAGGAAGUUGUG [JMF's solution 72] (Eterna round: R96, puzzle: Same State NG 1) |  | 43.3 |  |  |  |  |
| GGUAGGUUACUACCAAACAUGAGGAUCACCCAUGUAAGUGGGAAGGAUAUGGUACCUAUUUGGUACCAGAAGGUCCAAUUAAUU [Fiskers NG3ss - 3] (Eterna round: R96, puzzle: Same State NG 3) | 228 | 111 | 720 |  |  |  |
| UCAGUCAUGUAAGGAUAUGCAGCCGAAACGGCUGCAGAAGGUACUAUAAUUACAUGAGGAUCACCCAUGUUAUAAAUAAAAUAU [Mat - Same State NG 1 - JL mod - D66] (Eterna round: R96, puzzle: Same State NG 1) | 23.1 | 43 | 62.6 |  |  |  |
| AGCUAGUACCGAGGAUAUACGUACAUGAGGAUCACCCAUGUAUACAUGGUUUAAUGAAACUACAUGUAGAAGGCGGUACUAGCA [Mat - Same State NG 2 - JL mod - D51] (Eterna round: R96, puzzle: Same State NG 2) | 23.2 | 157 | 348 |  |  |  |
| CGCAUCCUUGUUACAUGAGGAUCACCCAUGUUUUCGAGUGGAGAGGAUAUCGUAACAGUAUUUUUCGAGAAGGCUCUAUAGUAU [JR_SSNG3_Sub081] (Eterna round: R96, puzzle: Same State NG 3) | 52.1 | 39 | 57.3 |  |  |  |
| AAAAUACAUGAGGAUCACCCAUGUAGAAACUACACAGGAUAUCGGACGGCUAUAACCGAACGAGAAGGGUGAACCC [Onorvea] (puzzle: Same State 1) |  |  |  | 260 | 354 | 362 |
| GUGGCGGGUUGAGGAUAUUGGUUGCCGCUGUUUUACAUGAGGAUCACCCAUGUGGGUUGCGGUUUCGAGAAGGGAGGUUGCUGG [salish99_SSNG2_r04_055] (Eterna round: R96, puzzle: Same State NG 2) | 14.2 | 11.7 | 17.6 |  |  |  |
| UGGUACAUGCGAGGAUAUGGGUUGAUGACAUGAGGAUCACCCAUGUUAAAUAUGCCGAGAGGCACCUAGAAGGCGCAUGUACCU [MOD2 of JL SSNG1 3.99] (Eterna round: R96, puzzle: Same State NG 2) | 10.4 | 23 | 36.9 |  |  |  |
| ACUUAGUACAAUUUAGAUCUACAUGAGGAUCACCCAUGUACUGAGGAUAUCAGCUCGUUUAGAGCUGAGAAGGCAGUAGUACUA [SSNG3/9-A3] (Eterna round: R96, puzzle: Same State NG 3) | 46.7 | 26.2 | 61.9 |  |  |  |
| UACAAUCUAUCUGAGGAUAUCAUGAAUUAUACAUGAGGAUCACCCAUGUGCAGGAAAACUGCAUAUGAGAAGGCAGAUAGAUUGU [salish99_ss2_r3_062] (puzzle: Same State 2) |  |  |  | 63.4 | 43.6 | 183 |
| GGUCCAGCGAGAGCUGGACAAAAGCAUGUACAUGAGGAUCACCCAUGUCAUGUACAAGCUUUUUGCUCGUCUUAAAA [Mat - Sensor - JL mod - D88] (Eterna round: R96, puzzle: Sensor for hsa-mir-208a) | 556 | 12.9 | 486 |  |  |  |
| AGCGUCCACACAGGAUAUCACCUGCACUACAGGUGAGAAGGGUGACCGGUGCGCAAUAACGACAUGAGGAUCACCCAUGUAAAA [Enraquleer] (Eterna round: R96, puzzle: Same State NG 1) | 334 | 93.2 | 384 |  |  |  |
